Results on 2 molecules are retold here after publication doi:10.1101/2025.11.18.689095 (bioRxiv, 2025).

What all share (conditions): both partners purified
Assay [1] concerns the target T1, human Tom70 (residues 108–608) (human, UniProt O94826 108-608).
T1 construct: human Tom70 (translocase of outer mitochondria membrane 70), residues 108-608; N-terminal Avi tag, His6 tag, (GGS)5 linker and TEV site removed by TEV protease; also called hTom70; free Tom70; source: E. coli BL21 (DE3), purified (Ni-NTA, TEV cleavage, second Ni column, SEC); not shown: Avi, N-terminal, cleaved; His6, N-terminal, cleaved
T1 sequence: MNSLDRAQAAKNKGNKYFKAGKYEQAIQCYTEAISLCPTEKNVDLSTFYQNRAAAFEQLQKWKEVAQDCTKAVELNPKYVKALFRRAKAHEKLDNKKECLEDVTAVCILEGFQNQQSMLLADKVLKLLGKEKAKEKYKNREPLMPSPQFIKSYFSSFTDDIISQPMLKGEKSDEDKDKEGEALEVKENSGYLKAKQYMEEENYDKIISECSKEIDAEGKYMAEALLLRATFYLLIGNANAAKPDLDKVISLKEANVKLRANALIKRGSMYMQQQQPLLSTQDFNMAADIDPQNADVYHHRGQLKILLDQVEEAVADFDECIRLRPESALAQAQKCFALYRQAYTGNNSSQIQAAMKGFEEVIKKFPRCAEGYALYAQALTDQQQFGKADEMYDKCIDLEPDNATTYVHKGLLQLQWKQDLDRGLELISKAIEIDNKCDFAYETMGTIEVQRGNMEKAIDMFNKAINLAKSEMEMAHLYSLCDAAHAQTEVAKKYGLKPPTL
Briefly: ITC; Orf9b_(Helix) (120 μM) titrated into 15 μM Tom70 or Tom70:Hsp90_(EEVD) complex (15 μM Tom70: 400 μM Hsp90_(EEVD)); 20°C; 20 mM sodium phosphate pH 7, 100 mM NaCl, 2 mM TCEP; 1:1 binding model.

Assay [2] addresses T2, Tom70:Hsp90_(EEVD) complex (human, UniProt O94826 108-608, C-terminus not amidated (free carboxyl)).
T2 construct: human Tom70, residues 108-608; tyrosine added to aid with quantification; C-terminal residues 724-732 of human Hsp90α; also called Tom70 complexed with Hsp90_(EEVD) peptide; not shown: Avi, N-terminal, cleaved; His6, N-terminal, cleaved
The description is as above.

Assay [3] deals with T3, ^19F-labeled Tom70 (5-fluoro-tryptophan, residues 108–608) (human, UniProt O94826 108-608, 5-fluoro-tryptophan at W169 and W523).
T3 construct: human Tom70, residues 108-608; also called ^19F Tom70; 5F-Trp Tom70; source: E. coli BL21(DE3) in M9 media supplemented with 5-fluoro-tryptophan, purified as unlabeled Tom70; not shown: Avi, N-terminal, cleaved; His6, N-terminal, cleaved
T3 sequence: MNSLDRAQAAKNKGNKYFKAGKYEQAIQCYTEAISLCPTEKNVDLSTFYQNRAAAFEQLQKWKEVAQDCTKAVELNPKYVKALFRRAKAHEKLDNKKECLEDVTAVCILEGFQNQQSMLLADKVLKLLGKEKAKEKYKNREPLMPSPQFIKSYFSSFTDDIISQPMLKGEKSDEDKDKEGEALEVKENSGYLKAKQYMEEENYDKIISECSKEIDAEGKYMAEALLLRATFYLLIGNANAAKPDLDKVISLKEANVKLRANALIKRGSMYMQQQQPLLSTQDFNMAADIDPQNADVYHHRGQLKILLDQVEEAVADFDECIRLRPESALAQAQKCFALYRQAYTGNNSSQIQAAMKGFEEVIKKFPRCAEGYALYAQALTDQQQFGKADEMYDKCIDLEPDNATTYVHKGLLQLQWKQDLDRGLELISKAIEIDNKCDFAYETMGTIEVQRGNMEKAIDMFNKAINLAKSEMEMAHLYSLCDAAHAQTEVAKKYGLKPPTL
Briefly: NMR titration; […]) 130 μM, […]) 400 μM, […]; 25°C; […].

Assay [4] concerns the target T4, human Hsp90α (residues 1–732), full-length (human, UniProt P07900 1-732).
T4 construct: human Hsp90α, residues 1-732; also called full-length Hsp90; heat shock protein 90; source: E. coli BL21 Star (DE3) pLysS, purified (Ni-INDIGO, TEV cleavage, second Ni-INDIGO, HiPrep Q); not shown: Avi, N-terminal, cleaved; His6, N-terminal, cleaved
Briefly: ITC; […] (400 μM), […] (400 μM), […] (500 μM) […] (20 μM); 20°C; 20 mM sodium phosphate pH 8, 150 mM NaCl, 2 mM TCEP, 10% glycerol; 1:1 binding model.

B1: Orf9b_(Helix) peptide (peptide)
peptide: IILRLGSPLSLNMARKTLNSLEDKAFQLTPIAVQY
notes: SARS-CoV-2 Orf9b residues 44-77, the helical region seen in the Tom70-Orf9b structure; tyrosine added to aid with quantification
On to B1, for which the binding result in assay [1], in assay [2] and in assay [3] was “binds” each time.

B2: Tom70:Orf9b_(Helix) complex (complex)
chain 1: MNSLDRAQAAKNKGNKYFKAGKYEQAIQCYTEAISLCPTEKNVDLSTFYQNRAAAFEQLQKWKEVAQDCTKAVELNPKYVKALFRRAKAHEKLDNKKECLEDVTAVCILEGFQNQQSMLLADKVLKLLGKEKAKEKYKNREPLMPSPQFIKSYFSSFTDDIISQPMLKGEKSDEDKDKEGEALEVKENSGYLKAKQYMEEENYDKIISECSKEIDAEGKYMAEALLLRATFYLLIGNANAAKPDLDKVISLKEANVKLRANALIKRGSMYMQQQQPLLSTQDFNMAADIDPQNADVYHHRGQLKILLDQVEEAVADFDECIRLRPESALAQAQKCFALYRQAYTGNNSSQIQAAMKGFEEVIKKFPRCAEGYALYAQALTDQQQFGKADEMYDKCIDLEPDNATTYVHKGLLQLQWKQDLDRGLELISKAIEIDNKCDFAYETMGTIEVQRGNMEKAIDMFNKAINLAKSEMEMAHLYSLCDAAHAQTEVAKKYGLKPPTL
chain 2: IILRLGSPLSLNMARKTLNSLEDKAFQLTPIAVQY
notes: human Tom70, residues 108-608; SARS-CoV-2 Orf9b residues 44-77; tyrosine added to aid with quantification; not shown: Avi, N-terminal, cleaved; His6, N-terminal, cleaved
With B2, the “fold by which the inhibitory effect of full-length Orf9b exceeds that of Orf9b_(Helix)” value in assay [4] was 2.4 fold.
